Reference: patent publication US20160303258A1
Where no end group is shown, it is not given here. The star is where a group is joined. DOTA = O=C(O)CN1CCN(CC(=O)O)CCN(CC(=O)*)CCN(CC(=O)O)CC1; Ahx = NCCCCCC(=O)O

B1: [68Ga]MLN6907 DP (drug product), Formula (VIa) (peptide)
peptide: {DOTA-Ahx}-CCELCCNPACAGCY
modifications: ends and bridges not checked; also: 68Ga complexed by DOTA, cyclised (places not given here)

Assays:
[1] = biological target: guanylyl cyclase C (GCC) (human), P25092; assay: in vivo competitive binding study with [68Ga]MLN6907 in HEK-293 GCC Clone 2 tumor-bearing mice, model-derived
guanylyl cyclase C (GCC) (human), P25092, sequence (P25092 24-1073 limits assumed): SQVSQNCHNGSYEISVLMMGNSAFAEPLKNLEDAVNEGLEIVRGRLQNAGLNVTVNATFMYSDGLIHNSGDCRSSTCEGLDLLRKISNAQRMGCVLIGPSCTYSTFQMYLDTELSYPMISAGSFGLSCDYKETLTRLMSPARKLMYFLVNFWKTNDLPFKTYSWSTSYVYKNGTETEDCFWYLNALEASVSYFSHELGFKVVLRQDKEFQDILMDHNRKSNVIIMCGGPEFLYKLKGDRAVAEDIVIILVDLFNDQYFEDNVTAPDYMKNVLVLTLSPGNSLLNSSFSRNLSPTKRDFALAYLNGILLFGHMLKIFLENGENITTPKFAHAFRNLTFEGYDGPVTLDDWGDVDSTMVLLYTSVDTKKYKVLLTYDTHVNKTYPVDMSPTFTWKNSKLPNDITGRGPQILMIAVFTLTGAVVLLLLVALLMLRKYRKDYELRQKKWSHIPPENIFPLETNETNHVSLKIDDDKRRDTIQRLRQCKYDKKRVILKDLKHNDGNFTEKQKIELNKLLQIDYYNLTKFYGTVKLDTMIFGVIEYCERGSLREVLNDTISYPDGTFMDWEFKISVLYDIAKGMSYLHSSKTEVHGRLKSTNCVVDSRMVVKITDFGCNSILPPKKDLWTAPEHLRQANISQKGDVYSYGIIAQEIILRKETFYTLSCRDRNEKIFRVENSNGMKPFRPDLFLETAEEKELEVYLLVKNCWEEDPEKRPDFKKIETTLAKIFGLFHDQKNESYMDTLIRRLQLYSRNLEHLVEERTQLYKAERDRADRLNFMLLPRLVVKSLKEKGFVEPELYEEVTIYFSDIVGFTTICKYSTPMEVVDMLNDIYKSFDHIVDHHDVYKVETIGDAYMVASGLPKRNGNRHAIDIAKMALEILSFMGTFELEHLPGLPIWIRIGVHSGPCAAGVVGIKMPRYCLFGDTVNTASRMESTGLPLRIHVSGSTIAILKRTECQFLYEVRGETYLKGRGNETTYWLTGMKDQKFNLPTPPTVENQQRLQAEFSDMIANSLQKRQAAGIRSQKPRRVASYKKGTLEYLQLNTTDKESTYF

[2] = biological target: guanylyl cyclase C (GCC) (human), P25092; assay: competitive binding against [111In]MLN6907 on HEK-293 GCC Clone 2 cells; DSP without chelation reaction conditions
[3] = biological target: guanylyl cyclase C (GCC) (human), P25092; assay: in vitro competitive binding assay with HEK-293 GCC clone 2 cells (Indium-111 used as surrogate label; FIG. 13)
[4] = biological target: guanylyl cyclase C (GCC) (human), P25092; assay: competitive binding against [111In]MLN6907 on HEK-293 GCC Clone 2 cells; DSP treated with chelation reaction conditions (acetone:HCl, about 100 C, 10 min)
[5] = biological target: guanylyl cyclase C (GCC) (human), P25092; assay: in vivo competitive binding against [68Ga]MLN6907 DP in tumor models with different GCC expression levels; semi-mechanistic model

| Binder | Bmax (antigen surface density, HEK-293 GCC Clone 2) [1] | IC50 [2] | Kd [3] | IC50 [4] | EC50 [5] |
| --- | --- | --- | --- | --- | --- |
| B1 | 14000 | – | – | – | – |
| CCELCCNPACAGCY (modifications not checked) [MLN6907 DSP (drug substance precursor), Formula (VI): DOTA-Ahx-STp(5-18), not radiolabeled] | – | 4.59 nM | 3.2 nM | 4.75 nM | 97.1 to 5660 nM |
